# Article PMC2688778 (Structure (London, England : 1993), 2009)
# T1: RecE564 H609A (Escherichia coli K12, UniProt P15032 564-866, H609A)
# T1 sequence: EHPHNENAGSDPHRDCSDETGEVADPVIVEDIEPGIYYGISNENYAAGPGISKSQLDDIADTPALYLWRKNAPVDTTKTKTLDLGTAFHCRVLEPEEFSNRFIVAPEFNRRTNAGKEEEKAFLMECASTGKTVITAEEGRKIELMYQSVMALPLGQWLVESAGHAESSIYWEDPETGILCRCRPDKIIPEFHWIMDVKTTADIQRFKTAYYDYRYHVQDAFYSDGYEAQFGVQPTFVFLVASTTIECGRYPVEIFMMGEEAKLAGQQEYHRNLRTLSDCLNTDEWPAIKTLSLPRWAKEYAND
# T2: RecE564 P658L (Escherichia coli K12, UniProt P15032 564-866, P658L)
# T2 sequence: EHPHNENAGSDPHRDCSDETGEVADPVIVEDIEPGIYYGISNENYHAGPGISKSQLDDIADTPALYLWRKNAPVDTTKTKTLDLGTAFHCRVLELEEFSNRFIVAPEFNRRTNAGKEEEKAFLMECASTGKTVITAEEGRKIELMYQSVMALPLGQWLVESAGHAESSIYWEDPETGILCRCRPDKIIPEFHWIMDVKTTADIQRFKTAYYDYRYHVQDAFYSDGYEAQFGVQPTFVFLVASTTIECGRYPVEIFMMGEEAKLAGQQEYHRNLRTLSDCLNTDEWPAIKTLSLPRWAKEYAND
# T3: RecE564 Y608A (Escherichia coli K12, UniProt P15032 564-866, Y608A)
# T3 sequence: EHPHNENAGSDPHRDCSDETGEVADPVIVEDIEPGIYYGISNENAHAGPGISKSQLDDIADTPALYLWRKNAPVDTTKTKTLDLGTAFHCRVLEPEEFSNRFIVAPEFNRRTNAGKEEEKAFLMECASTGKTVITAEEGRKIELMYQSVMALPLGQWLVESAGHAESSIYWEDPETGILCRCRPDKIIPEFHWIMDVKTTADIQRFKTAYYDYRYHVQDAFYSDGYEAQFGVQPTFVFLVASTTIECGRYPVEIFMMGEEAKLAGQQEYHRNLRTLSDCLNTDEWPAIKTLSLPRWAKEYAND
# T4: RecE564 T675A (Escherichia coli K12, UniProt P15032 564-866, T675A)
# T4 sequence: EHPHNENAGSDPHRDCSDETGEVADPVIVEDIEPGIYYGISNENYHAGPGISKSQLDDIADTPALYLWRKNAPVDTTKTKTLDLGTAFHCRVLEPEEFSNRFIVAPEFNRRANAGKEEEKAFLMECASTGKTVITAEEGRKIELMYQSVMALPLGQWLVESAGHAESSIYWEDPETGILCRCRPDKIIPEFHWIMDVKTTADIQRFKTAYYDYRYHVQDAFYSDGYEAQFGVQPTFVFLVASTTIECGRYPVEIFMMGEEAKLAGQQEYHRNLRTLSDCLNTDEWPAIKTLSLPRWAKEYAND
# T5: RecE564 S615A (Escherichia coli K12, UniProt P15032 564-866, S615A)
# T5 sequence: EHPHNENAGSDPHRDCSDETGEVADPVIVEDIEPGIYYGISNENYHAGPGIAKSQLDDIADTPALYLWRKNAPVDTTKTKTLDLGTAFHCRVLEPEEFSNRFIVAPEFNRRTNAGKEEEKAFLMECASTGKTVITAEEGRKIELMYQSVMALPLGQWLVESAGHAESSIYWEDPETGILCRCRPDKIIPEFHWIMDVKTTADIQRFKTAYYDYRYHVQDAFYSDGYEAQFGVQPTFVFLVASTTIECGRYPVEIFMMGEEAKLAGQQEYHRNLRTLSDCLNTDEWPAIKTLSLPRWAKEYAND
# T6: RecE564 F665A (Escherichia coli K12, UniProt P15032 564-866, F665A)
# T6 sequence: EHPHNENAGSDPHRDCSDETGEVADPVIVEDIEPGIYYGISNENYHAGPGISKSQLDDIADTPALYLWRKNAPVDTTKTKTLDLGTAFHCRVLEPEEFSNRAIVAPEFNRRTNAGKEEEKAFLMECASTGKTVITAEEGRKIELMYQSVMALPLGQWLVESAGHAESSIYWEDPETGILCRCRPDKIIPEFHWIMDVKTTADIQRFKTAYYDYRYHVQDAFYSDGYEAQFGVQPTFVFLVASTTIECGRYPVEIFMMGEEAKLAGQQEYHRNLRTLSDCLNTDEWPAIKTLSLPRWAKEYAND
# Columns and labels:
# Experiment in all cases: fluorescence anisotropy
# [1] = biological target: T1, RecE564 H609A
# [2] = biological target: T2, RecE564 P658L
# [3] = biological target: T3, RecE564 Y608A
# [4] = biological target: T4, RecE564 T675A
# [5] = biological target: T5, RecE564 S615A
# [6] = biological target: T6, RecE564 F665A
binder,measurement,setting,value
F25 (dsDNA) DNA 1: TAGAGCTTAATTGCTGAATCTGGTG DNA 2: CACCAGATTCAGCAATTAAGCTCTA,Kd,[1],50 ± 3 nM
same,Kd,[2],80 ± 10 nM
same,Kd,[3],160 ± 10 nM
same,Kd,[4],650 ± 30 nM
same,Kd,[5],100 ± 4 nM
same,Kd,[6],200 ± 20 nM
